Here are results for eight molecules from patent US20060121580A1.

Experiment [1] addresses SARS-CoV preparation (Frankfurt 1 strain). The experiment in a line: phage ELISA on coated SARS-CoV preparation, plate 2 (no phage antibody 0.211). (ELISA stands for enzyme-linked immunosorbent assay.)
Experiment [2] has as its target SARS-CoV strain Frankfurt 1 (infectious virus). The experiment in a line: cell-based or functional assay.
Experiment [3] addresses SARS-CoV strain Frankfurt 2 (infectious virus). The experiment in a line: cell-based or functional assay.
For experiment [4], the target named is fetal bovine serum (FBS), 10% preparation. Description: phage ELISA on coated 10% FBS.

B1: SC03-025 (scFv)
scFv: AMAEVQLVESGGGLVQPGGSLRLSCAASGFTFSSYAMHWVRQAPGKGLEYVSGISSNGGSTYYANSVKGRFTISRDNSKNTLYLQMGSLRAEDMAVYYCARTTNRAFDIWGQGTMVTVSSGTGGSGGTGSGTGGSTDIQLTQSPDSLAVSLGERATINCKSSQSVLYSSNNKNYLAWYQQKPGQPPKLLIYWASIRESGVPDRFSGSGSGTDFTLTISSLQAEDVAVYYCQQYYNIPYAFGQGTKLEIKRAA
In experiment [1], B1 returned an OD492 nm of 1.64 OD492 nm.

B2: bivalent scFv pyBi03-012C02 (scFv)
scFv: AMAQVQLVQSGAEVKKPGASVKVSCKASGYTFTSYGISWVRQAPGQGLEWMGWISAYNGNTNYAQKLQGRVTMTTDTSTSTAYMELSSLRSDDTAVYYCARMFRKSSFDSWGQGTLVTVSRGGGGSGGGGSGGGGSSELTQDPAVSVALGQTVRITCQGDSLRSYYASWYQQKPGQAPVLVIYGKNNRPSGIPDRFSGSSSGNTASLTITGAQAEDEADYYCNSRDSSGNHVVFGGGTKLTVLGAAA
Molecule B2 came in with a Neutralization titer for Frankfurt 1 strain (dilution factor) in experiment [2] below 20. Further, in experiment [3], the Neutralization titer for Frankfurt 2 strain (dilution factor) was below 20.

B3: single-chain phage antibody SC03-012 (scFv)
scFv: AMAQVQLVQSGAEVKKPGASVKVSCKASGYTFTSYGISWVRQAPGQGLEWMGWISAYNGNTNYAQKLQGRVTMTTDTSTSTAYMELSSLRSDDTAVYYCARMFRKSSFDSWGQGTLVTVSRGGGGSGGGGSGGGGSSELTQDPAVSVALGQTVRITCQGDSLRSYYASWYQQKPGQAPVLVIYGKNNRPSGIPDRFSGSSSGNTASLTITGAQAEDEADYYCNSRDSSGNHVVFGGGTKLTVLGAAA
B3: the OD492 nm in experiment [4] is 0.1 OD492 nm.

B4: bivalent scFv pyBi03-015C02 (scFv)
scFv: AMAEVQLVESGGGVVRPGGSLRLSCAASGFTFDDYGMSWVRQAPGKGLEWVSGINWNGGSTGYADSVKGRFTISRDNAKNSLYLQMNSLRAEDTAVYYCARGLSLRPWGQGTLVTVSRGGGGSGGGGSGGGGSSELTQDPAVSVALGQTVRITCQGDSLRSYYASWYQQKPGQAPVLVIYGKNNRPSGIPDRFSGSSSGNTASLTITGAQAEDEADYYCNSRDSSGNHVVFGGGTKLTVLGAAA
The molecule B4 yielded a Neutralization titer for Frankfurt 1 strain (dilution factor) in experiment [2] below 20. Moreover, in experiment [3], the Neutralization titer for Frankfurt 2 strain (dilution factor) is below 20.

B5: single-chain phage antibody SC03-015 (scFv)
scFv: AMAEVQLVESGGGVVRPGGSLRLSCAASGFTFDDYGMSWVRQAPGKGLEWVSGINWNGGSTGYADSVKGRFTISRDNAKNSLYLQMNSLRAEDTAVYYCARGLSLRPWGQGTLVTVSRGGGGSGGGGSGGGGSSELTQDPAVSVALGQTVRITCQGDSLRSYYASWYQQKPGQAPVLVIYGKNNRPSGIPDRFSGSSSGNTASLTITGAQAEDEADYYCNSRDSSGNHVVFGGGTKLTVLGAAA
Regarding B5, the OD492 nm in experiment [4] turned out to be 0.077 OD492 nm.

B6: SC03-026 (scFv)
scFv: AMAQVQLVQSGGGLVQPGGSLRLSCAASGFTFSSYAMHWVRQAPGKGLEYVSGISSNGGSTYYANSVKGRFTISRDNSKNTLYLQMGSLRAEDMAVYYCARTTNRAFDIWGQGTMVTVSSGTGGSGGTGSGTGGSTDIQMTQSPDSLAVSLGERATINCKSSQSILYSSNSKNYLGWYQQKPGQPPKLLIYWASTRESGVPDRFSGSGSGTDFTLTISSLQAEDVAVYYCQQYYSTPYSFGQGTKVEIKRAA
In turn, B6 registered an OD492 nm in experiment [1] of 1.07 OD492 nm.

B7: bivalent scFv pyBi03-006C02 (scFv)
scFv: SMAEVQLVESGGGLVQPGGSLRLSCAASGFTFSGYPMHWVRQAPGKGLEWVAVISYDGSNKYYADSVKGRFTISRDNSKNTLYLQMNSLRAEDTAVYYCAKDGSPRTPSFDYWGQGTLVTVLEGTGGSGGTGSGTGTSELDIQMTQSPHSLSASVGDRVTITCRASQGISNYLAWYQQKPGKVPKLLIYAASTLQSGVPSRFSGSGSGTDFTLTISSLQPEDVGVYYCQQRFRTPVTFGQGTKLEIKRAAA
Consider B7, for which the Neutralization titer for Frankfurt 1 strain (dilution factor) in experiment [2] is below 20. For the same molecule, the Neutralization titer for Frankfurt 2 strain (dilution factor) in experiment [3] is below 20.

B8: single-chain phage antibody SC03-006 (scFv)
scFv: SMAEVQLVESGGGLVQPGGSLRLSCAASGFTFSGYPMHWVRQAPGKGLEWVAVISYDGSNKYYADSVKGRFTISRDNSKNTLYLQMNSLRAEDTAVYYCAKDGSPRTPSFDYWGQGTLVTVLEGTGGSGGTGSGTGTSELDIQMTQSPHSLSASVGDRVTITCRASQGISNYLAWYQQKPGKVPKLLIYAASTLQSGVPSRFSGSGSGTDFTLTISSLQPEDVGVYYCQQRFRTPVTFGQGTKLEIKRAAA
In experiment [4], B8 came in with an OD492 nm of 0.086 OD492 nm.
